# In patent US20220089743A1 (Chugai, published 2022):
# Legend:
# Test in all cases: cell-based or functional assay
# [1] = molecular target: HLA-DQ2.5 on IHW09023 cells loaded with gamma 2 gliadin peptide (human; wheat)
# [2] = molecular target: HLA-DQ2.5 on IHW09023 cells loaded with omega1/2 gliadin peptide (human; wheat)
# [3] = molecular target: HLA-DQ2.5 on IHW09023 cells loaded with gamma 4a gliadin peptide (human; wheat)
# [4] = molecular target: HLA-DQ2.5 on IHW09023 cells loaded with gamma 1 gliadin peptide (human; wheat)
# [5] = molecular target: HLA-DQ2.5 on IHW09023 cells loaded with gamma 3 gliadin peptide (human; wheat)
# [6] = molecular target: HLA-DQ2.5 on IHW09023 cells loaded with gamma 4d gliadin peptide (human; wheat)
# [7] = molecular target: HLA-DQ2.5 on IHW09023 cells loaded with BC hordein peptide (human; barley)
# [8] = molecular target: HLA-DQ2.5 on IHW09023 cells loaded with 33 mer gliadin peptide (human; wheat)
Binder,"IC50, γ2 gliadin TCR, 250 nM γ2 gliadin [1] [ng/mL]","IC50, ω1 gliadin TCR, 25 µM ω1/2 gliadin [2] [ng/mL]","IC50, ω2 gliadin TCR, 250 nM ω1/2 gliadin [2] [ng/mL]","IC50, γ4a gliadin TCR, 25 µM γ4a gliadin [3] [ng/mL]","IC50, γ1 gliadin TCR, 250 nM γ1 gliadin [4] [ng/mL]","IC50, γ3 gliadin TCR, 100 µM γ3 gliadin [5] [ng/mL]","IC50, γ4d gliadin TCR, 100 µM γ4d gliadin [6] [ng/mL]","IC50, BC hordein TCR, 250 nM BC hordein [7] [ng/mL]","IC50, α1b gliadin TCR, 250 nM 33mer gliadin [8] [ng/mL]","IC50, α2 gliadin TCR, 250 nM 33mer gliadin [8] [ng/mL]","IC50, α1a gliadin TCR, 250 nM 33mer gliadin [8] [ng/mL]"
DQN0344H0976/L0591//DQN0385H1270/L0681-F6 (bispecific antibody) heavy 1: QVQLVESGGGVVQPGGSLRLSCAASGFTFSSAYWMVWVRQAPGQGLEWMGAVYGGSDTTYYAKWTEGRFTISRDTSKNTLYLQMNSLRAEDTAVYYCAREPLNYYYYGELNLWGQGTLVTVSSASTKGPSVFPLAPSSKSTSGGTAALGCLVKDYFPEPVTVSWNSGALTSGVHTFPAVLKSSGLYSLSSVVTVPSSSLGTQTYICNVNHKPSNTKVDKRVEPKSCDKTHTCPPCPAPELRRGPSVFLFPPKPKDTLMISRTPEVTCVVVDVSHEDPEVKFNWYVDGVEVHNAKTKPREEQYNSTYRVVSVLTVLHQDWLNGKEYKCKVSNKALPAPIEKTISKAKGQPREPQVYTLPPSREEMTKNQVSLTCLVKGFYPSDIAVEWESNGQPENNYKTTPPYLDSDGSFFLYSKLTVDKSRWQEGNVFSCSVLHEALHAHYTREELSLSP light 1: DIQMTQSPSSLSASVGDRVTITCQATEEIYSGLAWYQQKPGKAPKLLIYYVSTLYEGIPARFSGSGSGTDFTLTISSLEPEDFAVYYCQTYEDVSAVTFGQGTKVEIKRTVAAPSVFIFPPSDEQLKSGTAEVVCLLNNFYPREAKVQWKVDNALQSGNSEESVTEQDSKDSTYSLSSTLTLSKADYEKHKVYACEVTHQGLSSPVTKSFNRGEC heavy 2: QVQLVESGGGVVQPGRSLRLSCAASGFTFSEWYFMSWVRQAPGKGLEWVASIDTGSGSIDYAEWVEGRFTISRDNSKNTLYLQMNSLRAEDTAVYYCARDIGIDYNFWGPGTLVTVSSASTKGPSVFPLAPSSKSTSGGTAALGCLVEDYFPEPVTVSWNSGALTSGVHTFPAVLESSGLYSLSSVVTVPSSSLGTKTYICNVNHKPSNTKVDKRVEPKSCDKTHTCPPCPAPELRRGPSVFLFPPKPKDTLMISRTPEVTCVVVDVSHEDPEVKFNWYVDGVEVHNAKTKPREEQYNSTYRVVSVLTVLHQDWLNGKEYKCKVSNKALPAPIEKTISKAKGQPREPQVYTLPPSRKEMTKNQVSLTCLVKGFYPSDIAVEWESNGQPENNYKTTPPYLDSDGSFFLYSKLTVDKSRWQQGNVFSCSVLHEALHAHYTRKELSLSP light 2: DIQMTQSPSSLSASVGDRVTITCQTTQSISSYLNWYQQKPGQPPKLLIYYASTKAEGIPARFSGSGLGTDFTLTISSLEPEDFAVYYCHYGISKVSFGQGTKVEIKRTVAAPSVFIFPPSDEQLKSGTAKVVCLLNNFYPREAKVQWKVDNALQSGNSKESVTEQDSKDSTYSLSSTLTLSKADYEKHKVYACEVTHQGLSSPVTKSFNRGEC,182,2.07,0.26,749,1.05,2.4,11.8,12,1.36,0.34,
DQN0344H0976/L0591//DQN0385H1270/L0722-F6 (bispecific antibody) heavy 1: QVQLVESGGGVVQPGGSLRLSCAASGFTFSSAYWMVWVRQAPGQGLEWMGAVYGGSDTTYYAKWTEGRFTISRDTSKNTLYLQMNSLRAEDTAVYYCAREPLNYYYYGELNLWGQGTLVTVSSASTKGPSVFPLAPSSKSTSGGTAALGCLVKDYFPEPVTVSWNSGALTSGVHTFPAVLKSSGLYSLSSVVTVPSSSLGTQTYICNVNHKPSNTKVDKRVEPKSCDKTHTCPPCPAPELRRGPSVFLFPPKPKDTLMISRTPEVTCVVVDVSHEDPEVKFNWYVDGVEVHNAKTKPREEQYNSTYRVVSVLTVLHQDWLNGKEYKCKVSNKALPAPIEKTISKAKGQPREPQVYTLPPSREEMTKNQVSLTCLVKGFYPSDIAVEWESNGQPENNYKTTPPYLDSDGSFFLYSKLTVDKSRWQEGNVFSCSVLHEALHAHYTREELSLSP light 1: DIQMTQSPSSLSASVGDRVTITCQATEEIYSGLAWYQQKPGKAPKLLIYYVSTLYEGIPARFSGSGSGTDFTLTISSLEPEDFAVYYCQTYEDVSAVTFGQGTKVEIKRTVAAPSVFIFPPSDEQLKSGTAEVVCLLNNFYPREAKVQWKVDNALQSGNSEESVTEQDSKDSTYSLSSTLTLSKADYEKHKVYACEVTHQGLSSPVTKSFNRGEC heavy 2: QVQLVESGGGVVQPGRSLRLSCAASGFTFSEWYFMSWVRQAPGKGLEWVASIDTGSGSIDYAEWVEGRFTISRDNSKNTLYLQMNSLRAEDTAVYYCARDIGIDYNFWGPGTLVTVSSASTKGPSVFPLAPSSKSTSGGTAALGCLVEDYFPEPVTVSWNSGALTSGVHTFPAVLESSGLYSLSSVVTVPSSSLGTKTYICNVNHKPSNTKVDKRVEPKSCDKTHTCPPCPAPELRRGPSVFLFPPKPKDTLMISRTPEVTCVVVDVSHEDPEVKFNWYVDGVEVHNAKTKPREEQYNSTYRVVSVLTVLHQDWLNGKEYKCKVSNKALPAPIEKTISKAKGQPREPQVYTLPPSRKEMTKNQVSLTCLVKGFYPSDIAVEWESNGQPENNYKTTPPYLDSDGSFFLYSKLTVDKSRWQQGNVFSCSVLHEALHAHYTRKELSLSP light 2: DIQMTQSPSSLSASVGDRVTITCQTTQSISSYLNWYQQKPGQPPKLLIYYASTKAEGIPARFSGSGLGTDFTLTISSLQPEDFAVYYCHYGISKVSFGQGTKVEIKRTVAAPSVFIFPPSDEQLKSGTAKVVCLLNNFYPREAKVQWKVDNALQSGNSKESVTEQDSKDSTYSLSSTLTLSKADYEKHKVYACEVTHQGLSSPVTKSFNRGEC,281,2.55,0.26,726,0.66,2.88,16.3,13.2,1.41,0.31,0.38
DQN0344H0976/L0591//DQN0385H1255/L0605-F6 (bispecific antibody) heavy 1: QVQLVESGGGVVQPGGSLRLSCAASGFTFSSAYWMVWVRQAPGQGLEWMGAVYGGSDTTYYAKWTEGRFTISRDTSKNTLYLQMNSLRAEDTAVYYCAREPLNYYYYGELNLWGQGTLVTVSSASTKGPSVFPLAPSSKSTSGGTAALGCLVKDYFPEPVTVSWNSGALTSGVHTFPAVLKSSGLYSLSSVVTVPSSSLGTQTYICNVNHKPSNTKVDKRVEPKSCDKTHTCPPCPAPELRRGPSVFLFPPKPKDTLMISRTPEVTCVVVDVSHEDPEVKFNWYVDGVEVHNAKTKPREEQYNSTYRVVSVLTVLHQDWLNGKEYKCKVSNKALPAPIEKTISKAKGQPREPQVYTLPPSREEMTKNQVSLTCLVKGFYPSDIAVEWESNGQPENNYKTTPPYLDSDGSFFLYSKLTVDKSRWQEGNVFSCSVLHEALHAHYTREELSLSP light 1: DIQMTQSPSSLSASVGDRVTITCQATEEIYSGLAWYQQKPGKAPKLLIYYVSTLYEGIPARFSGSGSGTDFTLTISSLEPEDFAVYYCQTYEDVSAVTFGQGTKVEIKRTVAAPSVFIFPPSDEQLKSGTAEVVCLLNNFYPREAKVQWKVDNALQSGNSEESVTEQDSKDSTYSLSSTLTLSKADYEKHKVYACEVTHQGLSSPVTKSFNRGEC heavy 2: QVQLVESGGGVVQPGRSLRLSCAASGFTFSEWYFMSWVRQAPGKGLEWVASIDTGSGSIDYAGWVEERFTISRDNSKNTLYLQMNSLRAEDTAVYYCARDIGIDYNFWGPGTLVTVSSASTKGPSVFPLAPSSKSTSGGTAALGCLVEDYFPEPVTVSWNSGALTSGVHTFPAVLESSGLYSLSSVVTVPSSSLGTKTYICNVNHKPSNTKVDKRVEPKSCDKTHTCPPCPAPELRRGPSVFLFPPKPKDTLMISRTPEVTCVVVDVSHEDPEVKFNWYVDGVEVHNAKTKPREEQYNSTYRVVSVLTVLHQDWLNGKEYKCKVSNKALPAPIEKTISKAKGQPREPQVYTLPPSRKEMTKNQVSLTCLVKGFYPSDIAVEWESNGQPENNYKTTPPYLDSDGSFFLYSKLTVDKSRWQQGNVFSCSVLHEALHAHYTRKELSLSP light 2: DIQMTQSPSSLSASVGDRVTITCQTTQSISSYLNWYQQKPGQPPKLLIYYASTKAEGIPARFSGSGSGTDFTLTISSLEPEDFAVYYCHYGISKVSFGQGTKVEIKRTVAAPSVFIFPPSDEQLKSGTAKVVCLLNNFYPREAKVQWKVDNALQSGNSKESVTEQDSKDSTYSLSSTLTLSKADYEKHKVYACEVTHQGLSSPVTKSFNRGEC,440,2.62,0.25,1430,0.91,2.31,12.4,13.6,2.66,0.56,0.49
